The values that follow come from US20240026407A1, “MODIFICATION OF SAPONINS” (GLAXOSMITHKLINE BIOLOGICALS SA, priority 2020, published 2024).

The chains are these.
B1: 1052 (protein, listed as Microbacterium testaceum)
chain: MTTDTRVAAVKAELRTDSPFVATPTPRLTWRVETSTPSWRQASAEITDGATSVPLEGAESALVAWPFAPLEPGERREVRVRVTGVDGAVTAWSAPLAVEAGFLAPDEWVAEPIGLADPEREAQPALVQTAFRLDRPVRRALLLWTALGSAEPEINGRAVSDDVLAPGWSATRDRLVHETVDVTDLLVEGDNVVGATLAGAWYTERYGFFTFTDRIYGDQPAFLAQLRVTFADGTVETVAPTGSAWTATGDAEIVTSGIYAGEHQDLRLRAPWSTPDATTSGTDRRWAPARVGVVARPGHENVPLPEARIAEPVRRHESLPVVARLATPSGGEVLDFGQNLVGRLRLRVRGEAGTTVTIRHAEVLDEGELALRPLRNAKAEASFVLSGGDDVLESRFSFYGFRYAQITGIDVTDAQVEAVVLHSDMERTGWFTSSHALVNRLHENVVWGMRGNFLALPTDCPQRDERLGWTGDLQVFAPTASFLYDCDGFLTSWLRDLALEQERAGGIVPLVIPAALPSFAGGGPVAAWGDAAAVTPTVLHERFGDIGVLAAQYPSMRAWVEAVRADAGDSGLWAGRMQLGDWLDPSAPPDQPGKAKVDGDIVATAYFARSLRQVAEAAALLENTADAETYHALAERSRRAFVSEYVTPAGRMMSDAPTAYALALAFDLVQDAPTRAALADRLAALVRESGYRISTGFVGTPIIADALSDGGHHDAAERLLLQTQCPSWLYPVTQGATTVWERWDSLLPDGSVNPGEMTSFNHYALGAVADWLHRTVAGLAPAAPGYRRLRVAPRPLAAFEHASARHLTAYGPAEVSWEREPGSDVVRVRAIVPPNTTAEVALPGTLADGSEAPAEVGSGTHEWRVTLPAVPVRPPLPGLEAMLADVIDDPRAYAALLDALEETAPERVEGVRSGTVWGAGRPLASALMFTPPDVLARVDRAVRDATA
B2: 1003 (protein, listed as Rahnella aquatilis)
chain: MPAVIRLTLNQESALSGVQQLPVLGWEIESRNRNVRQTAYRLQISQDQDFDNILLRGEWQESECSNNIPLTELMLTSSQHYFIRVQVRDNYGETSGWSSPAQMITGVLYPHEWLADFITAETSADKDNSHATLLRKSFVLNRAQDIQSAFIHVSALGLYELYLNGHKAGEDALTPGWTSYHNHLLYQTYDVTGHLEKGENVIGAILGAGWYKGDMGFSRHRNYYGERSALISQLVINYNDGSQEIVISDESWKGQDSAILFSEIYDGEIYDARREIPGWCTKDVSGEGWRPVSLVTHEKSTLVAQGSNTVRKMAEIKPVALITTPQGDTVIDFGQNLSGWVEFRVSGKAGDEVVLRHFEVLDADGNVYLDNLRTARQRTAYVLKGEGEEIWHPHFTWQGFRFVKVEEYPGQWDLNNFTAIVLHSAMEQTGHFACSNPQLNQLHHNILWGLKGNFVDVPTDCPQRDERLGWTGDAQIFCRTASYLMQTRNFFAKWLTDLRYDQTPEGGVPHVIPDILTGYCGKDRLLSEGGTHSASAWADAAVINPWTMYLMYGDTCVLENQYASMKGWIDFMTAHAENHIWHYKLQFGDWVALDAKEGSYFGATPNDLTCTAYYAYSTQLFAKAAKVLNRTEDYDHYHALYQAIVRRFQEAFFTPSGQLAARTQTAHILALYFNLVPDEFRQRTTDTLVELLNEHDGHLVTGFVGTPYFCHALSQNGRTKEAWNLLLKEDFPSWLYQVKAGATTVWEHWDGIKPDGSMWSADMNSFNHYAYGAVGEWLYRVAAGIEADEAQPGFKHFIIKPLTGGGLSWLDTRYQSIYGAIGVRWEVSGQTVFLNVTVPANTSATVVLTDGQSVQEADGIDFARCAEGYTAEVGSGEYRIEYRLV
B3: 990 (protein, listed as Streptomyces bingchenggensis)
chain: MISRRNLLGTATAAGPALTGLTALAATTGKAEAAEPGYGGLRVEKTTVEYADRPLGLDAPHPRLSWQLGSDRRNQSQSAYQLRVATSPGRIGAPDVWDSGKVSSHQSVLVPYDGPKLRARTRYHWAVRVWDGQGRPSPWSEPTWWETGLGTEDEGAARWVAAPDTVTRGPDLAKADWVWYPEGDPASSAPAGTRYFRGSLDVSGSVRLARLALVADDGFTAWVNGTEIGGRAPVQENWRHPVVVDVTALLREGANTIAVAAVNASSSPAGLLGVLELTDTDGVRSLTTSAAWKATDTEPSGDWHLPAYDDGGWAAAKVLAPWGGGPWGRVRAAQRPALVRRDFRLAAKPVARARLYSTALGLYEAEINGHRVGRDQLAPGWTDYRKRVQYQTYDVTDLLRHGANAIGVILASGWYSGSVAWFGQELYGERPALRAELEVTYADGSTDRVTADTHWRCATGPILTADLMAGEEYDARLEVSGWSSPAFDDSLWQSVDVVPADTTSAVSVVAQTDAPVRVARELAAVRVTEPKPGVYVFDLGQNMVGSVRLRVRGEAGRTVRLRHAEVLDKDGMLYTANLRTAQATDSYTLKGSGTETFEPRFTFHGFRYVEVTGYPGTPDTKSVTGRVMHTGAPFTMSFTTDVPMLDQLHRNITWGQRGNFLSVPTDTPARDERLGWTGDINVFSATAAYTMESARFLAKWLRDLRDGQSDAGAFPDVAPRIGNLGEGTAGWGDAGVTVPWNLYQAYGDRQILADNFPAMRAWITYLEQHSSGCLRPAEGYGDWLNVADETPKDVIATAYFAHSTQLVAKAARVLGHDPAPYDTLAAKVREAFNRAYVSADGTVKGNTQTAYVLALSMDLLPDSARTPAAERLVELIRSKDRHLSTGFLGTPRLLPTLTATGHTDVAYQLLEQRTFPSWGYQIDRGSTTMWERWDSLRPDGSFQDPGMNSFNHYAYGSVGEWMYQNITGIGMGEPGFRSIVIRPRPGGDVHEANGRYDSLYGPITTRWTRANDGAFTLDVSVPVNTTAEVWLPAATSRAASGISHAGATFLRLDDGCAVYGVGSGPYRFTAP
B4: 1073 (protein, listed as Streptomyces scabiei)
chain: MSHERATAEGTSAAARTAHRPHESPVHGLTVEHRTDPLGVDADRPRFGWRTRSASRGWRQGSYQILVATSPELLTPASADVWDSGRVRSADSVAVRYAGVPLRASTRYHWTVRVWNTEGRAAGTASPAVFETGLMSTDGVGGWDGARWIGMKGKVPGSPGAPLLRTRETLGCGDGRTVGDARLYISALGVYEAHVNGERVTVRQDGERTLELLPPGWTNYDARVDYLTYDVTVLLADGPEVTLAVVLGNGWYNGRVSEGSTYHTQSGNALAVKAKLLIRYTDGTTRSVVTGTSGGWKATDTGPFRADDLYDGQTYDARRELPGWTAPGFDDTAWSDVEHIAFEDRYPGVRLRAYPGESARFVDRWDRRPQSVTVITGVTGQDGSPHGRGRVVVDPARTVTDPAKAATAQVTLAAGETAVFDLGQNMVGVPRYGVRGPAGARVEFRFAEILNDDSAGADGPEGSLYRANLRSAKATSTYILKGDPEGETHQDSLTFYGFRHVSVTASETVTVTGLTGRVATSAVRETGTVTTNDPHVDKLASNIRWGQRGNYLWVPTDCPQRDERLGWTGDTQVFAVTGLYNADAYTFLSHFQDTVVDSQAIYGADGAQYTGVAPGGRYNFPGGGSGWADCGVVLPWTLWQMTGDTTVVEDNWPSMVRYLDWIRRQTGDTYAGQGSLTGDWLAPQKTSAQLMSDAYYGYSAHLMARMARAIGRAEEAATYERLFGRIRQAFIARYLSTEGGRVTVRSGLGDASPIEPGSDPNEKTEDNSQSALLWVLKLGFYENEAQRRALVALLADDIRNDAAHKEAHPDSVRVRYPENTLSVGFLGVNILAPVLTDEGRADLAYELLHQDALPSWLFSVKNGATTVWERWNSWAEDAGFGPVGMNSFNHYAYGAIMEWMYAYMAGIARDPDAPGFKRFLLQPHLDPTGRITRVRATHESPYGEILSAWEVGSGGRRLAYDVAVPANSEATLRVPAVSADSVREGGTPLADVAGVRFLGHTEGVSSYLLPSGRYRLSADLR

The first assay is described as follows: Experiment 6-1: screening of rhamnosidases for derhamnosylation of saponins in treated bark extract (2%), QS-17 2296 to QS-18 2150 (PAR %). In kind it is biochemical, Quillaja saponaria. To be noted: TBE 2%, pH 7.5, 30 degC, 18 h; TIC peak area ratio percent of rhamnosylated starting saponin to derhamnosylated product, LCMS/MS; negative controls 4.876, 5.225.
On to B1, for which the “QS-17 (PAR %)” value came out at 0.000%.

In the case of B2, the “QS-17 (PAR %)” value was determined as 0.000%.

For the molecule B3, the “QS-17 (PAR %)” value turned out to be 5.144%.

Take B4: the “QS-17 (PAR %)” value was 0.007%.

The nature of another assay: Experiment 6-1: specificity of rhamnosidases towards other rhamnose residues (C3 saccharide rhamnose, C28 saccharide rhamnose). In kind it is biochemical, Quillaja saponaria. The note with it: TBE 2%, pH 7.5, 30 degC, 18 h; LCMS/MS; negative controls 0.18, 0.17.
In the case of B1, the “ratio PP/QS-21” value was found to be 0.16.

In the case of B2, the “ratio PP/QS-21” value came out at 0.19.

On to B3, for which the “ratio PP/QS-21” value is 0.21.

Regarding B4, the “ratio PP/QS-21” value is 0.18.

A short description of a further assay: Experiment 6-2: screening of rhamnosidases for derhamnosylation of saponins in treated bark extract (25%), relative % of Left, Middle and Right Peak by UV HPLC. In kind it is biochemical, Quillaja saponaria. The note with it: TBE 25%, pH 7.4, 19.5 h, mainly QS-17 family, negative control 24%.
Consider B1, for which the “Left Peak” value was 9%.

Regarding B2, the “Left Peak” value came out at 7%.

Regarding B3, the “Left Peak” value is on record as 23%.

Turning to B4, the “Left Peak” value is reported as 6%.

The same assay, now with this note: TBE 25%, pH 7.4, 19.5 h, mainly QS-18 and desglucosyl-QS-17 family, negative control 50%.
With B1, the “Middle Peak” value is reported as 62%.

With B2, the “Middle Peak” value is 63%.

Regarding B3, the “Middle Peak” value was 51%.

As to B4, the “Middle Peak” value worked out at 62%.

Staying with this assay, now noted: TBE 25%, pH 7.4, 19.5 h, mainly QS-21 family, negative control 26%.
Regarding B1, the “Right Peak” value is given as 30%.

With B2, the “Right Peak” value was determined as 31%.

Consider B3, for which the “Right Peak” value worked out at 26%.

Consider B4, for which the “Right Peak” value is 31%.

The next assay can be described thus: Experiment 6-1: screening of rhamnosidases for derhamnosylation of saponins in treated bark extract (2%), desglucosyl-QS-17 2134 to QS-21 1988 (PAR %). The assay is classed as biochemical, Quillaja saponaria. The note with it: TBE 2%, pH 7.5, 30 degC, 18 h; TIC peak area ratio percent, LCMS/MS; negative controls 2.719, 2.158.
On to B1, for which the “Peak75 (PAR %)” value was 0.000%.

Regarding B2, the “Peak75 (PAR %)” value turned out to be 0.000%.

Consider B3, for which the “Peak75 (PAR %)” value was 2.151%.

As to B4, the “Peak75 (PAR %)” value was 0.000%.

A further assay is described as follows: Experiment 6-3: screening of rhamnosidases for derhamnosylation of saponins in crude bark extract (80%), relative % of Left, Middle and Right Peak by UV HPLC. The assay is classed as biochemical, Quillaja saponaria. To be noted: CBE 80%, pH 7.4, 30 degC, 19.5 h, mainly QS-17 family, negative control 27%. The essentials: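 Clarified lysates of expressed rhamnosidase variants were incubated with crude bark extract (pH 7.4, final 80%) at 30 degC with shaking for 19.5 h, then quenched with MeCN+2% AcOH. UV HPLC gave relative % of Left (QS-17), Middle (QS-18/desglucosyl-QS-17) and Right (QS-21) peaks.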
On to B1, for which the “Left Peak” value was found to be 25%.

B2: the “Left Peak” value was found to be 27%.

Regarding B3, the “Left Peak” value was 25%.

B4: the “Left Peak” value is 20%.

Staying with this assay, now noted: CBE 80%, pH 7.4, 30 degC, 19.5 h, mainly QS-18 and desglucosyl-QS-17 family, negative control 48%.
As for B1, the “Middle Peak” value is recorded as 49%.

For B2, the “Middle Peak” value was found to be 47%.

For B3, the “Middle Peak” value is reported as 47%.

Take B4: the “Middle Peak” value came out at 52%.

The same assay, now with this note: CBE 80%, pH 7.4, 30 degC, 19.5 h, mainly QS-21 family, negative control 26%.
Regarding B1, the “Right Peak” value amounted to 27%.

For the molecule B2, the “Right Peak” value came out at 26%.

B3: the “Right Peak” value was determined as 28%.

On to B4, for which the “Right Peak” value is 28%.

The next assay in a line: Experiment 6-1: screening of rhamnosidases for derhamnosylation of saponins in treated bark extract (2%), QS-17 2310 to QS-18 2164 (PAR %). In kind it is biochemical, Quillaja saponaria. The note with it: TBE 2%, pH 7.5, 30 degC, 18 h; TIC peak area ratio percent, LCMS/MS; negative controls 3.061, 2.429.
Turning to B1, the “Peak57 (PAR %)” value is 0.000%.

For the molecule B2, the “Peak57 (PAR %)” value turned out to be 0.000%.

As for B3, the “Peak57 (PAR %)” value amounted to 0.188%.

Regarding B4, the “Peak57 (PAR %)” value is listed as 0.000%.
